Experimental data: publication PMC11754618 (2025)

T1: His6-Hs.USP18 (16-372) (human, UniProt Q9UMW8 16-372)
T1 chain: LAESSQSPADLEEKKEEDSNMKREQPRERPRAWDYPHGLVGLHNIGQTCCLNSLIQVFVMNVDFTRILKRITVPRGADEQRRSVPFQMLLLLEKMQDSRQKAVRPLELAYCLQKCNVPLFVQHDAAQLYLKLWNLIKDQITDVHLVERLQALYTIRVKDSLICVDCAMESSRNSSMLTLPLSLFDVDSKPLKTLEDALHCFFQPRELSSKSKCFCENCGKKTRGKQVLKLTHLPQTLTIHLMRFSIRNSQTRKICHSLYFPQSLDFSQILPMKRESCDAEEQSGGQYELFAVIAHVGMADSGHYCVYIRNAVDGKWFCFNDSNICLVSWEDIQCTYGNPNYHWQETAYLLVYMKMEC

T2: His6-Mm.USP18 (46-368) (mouse, UniProt Q9WTV6 46-368)
T2 chain: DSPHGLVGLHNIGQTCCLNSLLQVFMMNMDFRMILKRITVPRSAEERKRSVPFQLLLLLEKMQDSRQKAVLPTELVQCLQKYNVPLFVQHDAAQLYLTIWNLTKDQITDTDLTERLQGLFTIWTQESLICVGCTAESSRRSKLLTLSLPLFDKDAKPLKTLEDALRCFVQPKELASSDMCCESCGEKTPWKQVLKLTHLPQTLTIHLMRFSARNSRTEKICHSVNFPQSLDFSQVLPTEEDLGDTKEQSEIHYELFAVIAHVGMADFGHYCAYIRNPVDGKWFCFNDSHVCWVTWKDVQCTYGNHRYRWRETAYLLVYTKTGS


Experiments:
His6-Hs.USP18 (16-372) = target: T1, His6-Hs.USP18 (16-372); assay: SPR
His6-Mm.USP18 (46-368) = target: T2, His6-Mm.USP18 (46-368); assay: SPR

Row | Kd (His6-Hs.USP18 (16-372)) [nM] | Kd (His6-Mm.USP18 (46-368)) [nM] | Binder
1 | 1900 | 1750 | Ac-mISG15CTD[R153Phe(guan)]-OH (domain or fragment, N-terminal acetyl; Phe(guan) (guanidino-phenylalanine) at 153) LSILVRNERGHSNIYEVFLTQTVDTLKKKVSQREQVHEDQFWLSFEGRPMEDKELLGEYGLKPQSTVIKHLRLFG
2 | 4300 | 2500 | Ac-mISG15CTD-OH (wild type) (domain or fragment, N-terminal acetyl) LSILVRNERGHSNIYEVFLTQTVDTLKKKVSQREQVHEDQFWLSFEGRPMEDKELLGEYGLKPQSTVIKHLRLRG
3 | 1200 | 4500 | Ac-mISG15CTD[R153Agb]-OH (domain or fragment, N-terminal acetyl; Agb (2-amino-4-guanidino-butyric acid) at 153) LSILVRNERGHSNIYEVFLTQTVDTLKKKVSQREQVHEDQFWLSFEGRPMEDKELLGEYGLKPQSTVIKHLRLXG
